Measurements from publication PMC7717906 (eLife, 2020).

Target: the molecule itself
Experiment: native gel or EMSA

B1: MoOsm1-GFP (enzyme)
chain: MAEFVRAQIFGTTFEITSRYSDLQPVGMGAFGLVCSARDQLTNQNVAIKKIMKPFSTPVLAKRTYRELKLLKHLKHENVISLSDIFISPLEDIYFVTELLGTDLHRLLTSRPLEKQFIQYFLYQIMRGLKYVHSAGVVHRDLKPSNILVNENCDLKICDFGLARIQDPQMTGYVSTRYYRAPEIMLTWQKYDVEVDIWSAGCIFAEMLEGKPLFPGKDHVNQFSIITELLGTPPDDVINTIASENTLRFVKSLPKRERQPLKNKFKNADPSAIDLLERMLVFDPKKRITATEALAHEYLTPYHDPTDEPIAEEKFDWSFNDADLPVDTWKIMMYSEILDYHNAEAGMQQMDDQFTGQ
stoichiometry N: 2
